Test results taken from patent US5316935A, “Subtilisin variants suitable for hydrolysis and synthesis in organic media” (California Institute of Technology, priority 1992, dated 1994).

What was measured:
Type in all cases: biochemical, Bacillus subtilis
[1] = substrate: C[C@H](NC(=O)CCC(=O)O)C(=O)N[C@@H](C)C(=O)N1CCC[C@H]1C(=O)N[C@@H](Cc1ccccc1)C(=O)Nc1ccc([N+](=O)[O-])cc1; test: Amidase activity: hydrolysis of p-nitroanilide peptide substrates; conditions: 0.1M Tris-HCl, 10 mM CaCl2, pH 8, 37° C.
Procedure: (§1) The amidase activities of subtilisin and derivatives thereof were measured on the substrate succinyl-Ala-Ala-Pro-Phe-p-nitroanilide (sAAPF-pna) at 37° C. in 0.1M Tris-HCl, pH 8.0 and 10 mM CaCl2. Assays were initiated by mixing the enzyme, the substrate and the reaction buffer. The amount of released p-nitroaniline was measured spectrophotometrically at 410 nm as a function of time. KM and kcat values for hydrolysis of sAAPF-pna by the subtilisin variants were obtained by nonlinear regression of the data using the program Enzfitter (Biosoft).
(§2) For activity measurements in mixed buffer (containing DMF), a portion of the aqueous buffer was replaced by the percentage (w/v) of DMF indicated in Table II. Kinetic constants are reported in Table II for the wild-type enzyme and six variants with 3-10 amino acid substitutions in 20% and 40% DMF.
(§3) The effects of different amino acid substitutions at position 103 on amidase activity were investigated. The variants Q103E, Q103K, and Q103S were constructed by PCR site-directed mutagenesis as described in Example VIII. The amidase activities of these variants and the variant Q103R identified by random mutagenesis and screening for enhanced activity in the presence of DMF (Example IV) are compared in Table III. The reactions were carried out in 10% DMF according to the procedures outlined in Examples XI and XII.
The effects of the Q103R amino acid substitution on amidase activity were investigated for two substrates, succinyl-Ala-Ala-Pro-Phe-p-nitroanilide (negatively-charged succinyl group at the peptide N-terminus) and Ala-Ala-Pro-Phe-p-nitroanilide (positively charged N-terminus) in 10% DMF.

[2] = substrate: C[C@H](NC(=O)CCC(=O)O)C(=O)N[C@@H](C)C(=O)N1CCC[C@H]1C(=O)N[C@@H](Cc1ccccc1)C(=O)Nc1ccc([N+](=O)[O-])cc1; test: Amidase activity: hydrolysis of p-nitroanilide peptide substrate; conditions: other: 0% DMF, 0.1M Tris-HCl, 10 mM CaCl2, pH 8, 37° C.
Procedure: as §1, §2

[3] = substrate: C[C@H](NC(=O)CCC(=O)O)C(=O)N[C@@H](C)C(=O)N1CCC[C@H]1C(=O)N[C@@H](Cc1ccccc1)C(=O)Nc1ccc([N+](=O)[O-])cc1; test: as above; conditions: other: 10% DMF, 0.1M Tris-HCl, 10 mM CaCl2, pH 8, 37° C.
Procedure: as §1, §2, §3

| Protein | Km [2] | kcat [2] | kcat/Km [2] | other results |
| --- | --- | --- | --- | --- |
| Bacillus subtilis subtilisin E variant Q103R (Bacillus subtilis subsp. subtilis str. 168; A256V/Q209R) (protein, each contain 275 residues; made in house; host or cells: Bacillus subtilis DB428 (vector pKWC), secreted into the medium) AQSVPYGISQIKAPALHSQGYTGSNVKVAVIDSGIDSSHPDLNVRGGASFVPSETNPYQDGSSHGTHVAGTIAALNNSIGVLGVAPSASLYAVKVLDSTGSGRYSWIINGIEWAISNNMDVINMSLGGPTGSTALKTVVDKAVSSGIVVVAAAGNEGSSGSTSTVGYPAKYPSTIAVGAVNSSNQRASFSSAGSELDVMAPGVSIQSTLPGGTYGAYNGTSMATPHVAGAAALILSKHPTWTNAQVRDRLESTATYLGNSFYYGKGLINVQAAAQ |  |  |  | Km ([1]; other: 0% DMF): 250 µM; kcat ([1]; other: 0% DMF): 31 s⁻¹; Km ([1]; other: 10% DMF (Table III)): 1300 µM; kcat ([1]; other: 10% DMF (Table III)): 34 s⁻¹; kcat/Km ([1]; other: 10% DMF (Table III)): 26 M^-1 s^-1 × 10^3 |
| Bacillus subtilis subtilisin E variant 3M (D60N + Q103R + N218S) (Bacillus subtilis subsp. subtilis str. 168; A256V/D166N/N324S/Q209R) (protein, each contain 275 residues; made in house; host or cells: Bacillus subtilis DB428 (vector pKWC), secreted into the medium) AQSVPYGISQIKAPALHSQGYTGSNVKVAVIDSGIDSSHPDLNVRGGASFVPSETNPYQNGSSHGTHVAGTIAALNNSIGVLGVAPSASLYAVKVLDSTGSGRYSWIINGIEWAISNNMDVINMSLGGPTGSTALKTVVDKAVSSGIVVVAAAGNEGSSGSTSTVGYPAKYPSTIAVGAVNSSNQRASFSSAGSELDVMAPGVSIQSTLPGGTYGAYSGTSMATPHVAGAAALILSKHPTWTNAQVRDRLESTATYLGNSFYYGKGLINVQAAAQ | 110 µM | 40 s⁻¹ | 360 M^-1 s^-1 × 10^3 |  |
| Bacillus subtilis subtilisin E variant 6M (D60N + Q103R + N218S + D97G + E156G + N181S) (Bacillus subtilis subsp. subtilis str. 168; … (protein) AQSVPYGISQIKAPALHSQGYTGSNVKVAVIDSGIDSSHPDLNVRGGASFVPSETNPYQNGSSHGTHVAGTIAALNNSIGVLGVAPSASLYAVKVLGSTGSGRYSWIINGIEWAISNNMDVINMSLGGPTGSTALKTVVDKAVSSGIVVVAAAGNGGSSGSTSTVGYPAKYPSTIAVGAVSSSNQRASFSSAGSELDVMAPGVSIQSTLPGGTYGAYSGTSMATPHVAGAAALILSKHPTWTNAQVRDRLESTATYLGNSFYYGKGLINVQAAAQ | 40 µM | 12 s⁻¹ | 268 M^-1 s^-1 × 10^3 |  |
| Bacillus subtilis subtilisin E variant 7M (D60N + Q103R + N218S + D97G + E156G + N181S + G131D) (Bacillus subtilis subsp. subtilis str. 168; … (protein) AQSVPYGISQIKAPALHSQGYTGSNVKVAVIDSGIDSSHPDLNVRGGASFVPSETNPYQNGSSHGTHVAGTIAALNNSIGVLGVAPSASLYAVKVLGSTGSGRYSWIINGIEWAISNNMDVINMSLGGPTDSTALKTVVDKAVSSGIVVVAAAGNGGSSGSTSTVGYPAKYPSTIAVGAVSSSNQRASFSSAGSELDVMAPGVSIQSTLPGGTYGAYSGTSMATPHVAGAAALILSKHPTWTNAQVRDRLESTATYLGNSFYYGKGLINVQAAAQ | 30 µM | 18 s⁻¹ | 606 M^-1 s^-1 × 10^3 |  |
| Bacillus subtilis subtilisin E variant Q103S (Bacillus subtilis subsp. subtilis str. 168; A256V/Q209S) (protein, each contain 275 residues; made in house; host or cells: Bacillus subtilis DB428 (vector pKWC), secreted into the medium) AQSVPYGISQIKAPALHSQGYTGSNVKVAVIDSGIDSSHPDLNVRGGASFVPSETNPYQDGSSHGTHVAGTIAALNNSIGVLGVAPSASLYAVKVLDSTGSGSYSWIINGIEWAISNNMDVINMSLGGPTGSTALKTVVDKAVSSGIVVVAAAGNEGSSGSTSTVGYPAKYPSTIAVGAVNSSNQRASFSSAGSELDVMAPGVSIQSTLPGGTYGAYNGTSMATPHVAGAAALILSKHPTWTNAQVRDRLESTATYLGNSFYYGKGLINVQAAAQ |  |  |  | Km [3]: 3000 µM; kcat [3]: 20 s⁻¹; kcat/Km [3]: 7.0 M^-1 s^-1 × 10^3 |
